Measurements: the supplement of paper PMC10065799, “High-throughput profiling of sequence recognition by tyrosine kinases and SH2 domains using bacterial peptide display” (eLife, 2023)

Tests used:
[1] = target: EPHB2 (UniProt P29323); experiment: phosphorylation enrichment, bacterial display (enrichment ratio); higher = better substrate or ligand; peptides without Tyr show the background
[2] = target: EPHB1 (UniProt P54762); experiment: as above
[3] = test system: AncSZ; experiment: as above
[4] = test system: c-Src; experiment: as above
[5] = target: Jak2 (UniProt O60674); experiment: as above
[6] = target: FGFR1 (UniProt P11362); experiment: as above
[7] = target: Fyn (UniProt P06241); experiment: as above
[8] = test system: c-Abl (mouse); experiment: as above
[9] = target: FGFR3 (UniProt P22607); experiment: as above
[10] = target: Fes (UniProt P07332); experiment: as above
[11] = target: Hck (UniProt P08631); experiment: as above
[12] = test system: Fer (mouse); experiment: as above
[13] = target: MERTK (UniProt Q12866); experiment: as above
[14] = target: c-Src SH2; experiment: SH2 binding enrichment of the phosphorylated peptide, bacterial display (enrichment ratio); higher = better substrate or ligand; peptides without Tyr show the background
[15] = target: Grb2 SH2 (UniProt P62993); experiment: as above
[16] = target: SHP2-C SH2; experiment: as above
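Throughout, for SH2 binding enrichment of the phosphorylated peptide, bacterial display: peptide library displayed on the E. coli surface as eCPX fusions, selected cells deep-sequenced, score is each peptide's frequency after selection divided by its frequency in the input.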
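Throughout, for phosphorylation enrichment, bacterial display: 11-residue human phosphosite peptides and single-mutation variants displayed on the E. coli surface, counted by deep sequencing, each peptide's frequency after selection divided by its frequency in the unselected input library; frequency after pTyr selection over input frequency; kinase dosed for 20-30% of maximal phosphorylation in three min.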

EPHB2, sequence (P29323 whole entry, looked up): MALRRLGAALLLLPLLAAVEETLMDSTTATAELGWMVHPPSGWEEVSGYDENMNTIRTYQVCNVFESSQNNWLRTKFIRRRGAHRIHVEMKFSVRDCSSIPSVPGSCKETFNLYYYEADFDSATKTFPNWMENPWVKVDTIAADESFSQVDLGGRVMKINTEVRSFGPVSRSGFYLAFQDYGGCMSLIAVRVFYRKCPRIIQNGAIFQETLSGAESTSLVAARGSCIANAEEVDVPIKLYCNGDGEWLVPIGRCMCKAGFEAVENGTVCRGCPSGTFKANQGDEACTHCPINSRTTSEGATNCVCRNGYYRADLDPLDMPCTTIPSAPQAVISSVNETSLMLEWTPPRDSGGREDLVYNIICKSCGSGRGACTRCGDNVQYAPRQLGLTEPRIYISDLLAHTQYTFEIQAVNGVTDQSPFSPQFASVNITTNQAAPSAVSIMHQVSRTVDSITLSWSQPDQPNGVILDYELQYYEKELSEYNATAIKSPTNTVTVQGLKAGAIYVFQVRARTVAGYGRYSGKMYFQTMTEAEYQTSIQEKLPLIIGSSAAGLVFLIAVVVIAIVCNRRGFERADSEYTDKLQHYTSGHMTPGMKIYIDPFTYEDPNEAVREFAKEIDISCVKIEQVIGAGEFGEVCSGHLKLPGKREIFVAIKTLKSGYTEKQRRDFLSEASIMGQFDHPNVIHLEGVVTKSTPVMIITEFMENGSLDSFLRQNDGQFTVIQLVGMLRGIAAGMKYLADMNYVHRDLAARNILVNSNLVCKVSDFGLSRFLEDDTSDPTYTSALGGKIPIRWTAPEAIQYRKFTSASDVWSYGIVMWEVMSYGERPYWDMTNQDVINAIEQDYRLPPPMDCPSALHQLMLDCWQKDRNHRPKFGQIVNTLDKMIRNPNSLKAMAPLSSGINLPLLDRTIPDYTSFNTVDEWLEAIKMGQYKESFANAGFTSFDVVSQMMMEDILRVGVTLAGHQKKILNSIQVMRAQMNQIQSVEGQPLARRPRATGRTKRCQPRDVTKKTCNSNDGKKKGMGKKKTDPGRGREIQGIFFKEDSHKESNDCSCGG
Grb2 SH2, sequence (P62993 whole entry, looked up): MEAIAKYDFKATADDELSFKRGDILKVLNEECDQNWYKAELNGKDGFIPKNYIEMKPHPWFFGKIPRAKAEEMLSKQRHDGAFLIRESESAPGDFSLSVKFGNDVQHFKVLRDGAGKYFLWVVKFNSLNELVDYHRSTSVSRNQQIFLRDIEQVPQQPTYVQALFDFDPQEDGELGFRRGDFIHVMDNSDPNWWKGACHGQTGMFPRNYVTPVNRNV
Fes, sequence (P07332 whole entry, looked up): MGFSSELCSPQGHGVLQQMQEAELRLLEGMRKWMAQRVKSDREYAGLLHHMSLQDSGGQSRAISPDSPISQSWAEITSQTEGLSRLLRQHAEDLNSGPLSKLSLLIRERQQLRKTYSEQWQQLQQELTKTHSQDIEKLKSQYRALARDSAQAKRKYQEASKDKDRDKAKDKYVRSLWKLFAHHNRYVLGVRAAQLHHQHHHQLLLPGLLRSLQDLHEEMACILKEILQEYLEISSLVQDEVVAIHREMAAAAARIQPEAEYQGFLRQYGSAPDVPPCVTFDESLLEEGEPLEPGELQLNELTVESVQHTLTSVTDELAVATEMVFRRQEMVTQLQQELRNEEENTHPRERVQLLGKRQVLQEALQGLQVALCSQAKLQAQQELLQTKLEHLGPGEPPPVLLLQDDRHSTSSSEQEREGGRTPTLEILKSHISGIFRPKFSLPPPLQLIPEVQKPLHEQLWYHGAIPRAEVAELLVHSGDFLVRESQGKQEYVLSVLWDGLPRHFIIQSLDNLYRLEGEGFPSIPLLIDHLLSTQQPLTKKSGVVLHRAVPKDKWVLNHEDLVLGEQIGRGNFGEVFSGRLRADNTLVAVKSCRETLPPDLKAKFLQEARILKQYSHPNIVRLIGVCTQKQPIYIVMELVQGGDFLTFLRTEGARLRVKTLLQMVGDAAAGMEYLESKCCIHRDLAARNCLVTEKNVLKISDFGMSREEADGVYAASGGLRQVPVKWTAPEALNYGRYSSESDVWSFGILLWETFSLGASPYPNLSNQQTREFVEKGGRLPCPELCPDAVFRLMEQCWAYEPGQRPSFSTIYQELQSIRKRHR
Hck, sequence (P08631 whole entry, looked up): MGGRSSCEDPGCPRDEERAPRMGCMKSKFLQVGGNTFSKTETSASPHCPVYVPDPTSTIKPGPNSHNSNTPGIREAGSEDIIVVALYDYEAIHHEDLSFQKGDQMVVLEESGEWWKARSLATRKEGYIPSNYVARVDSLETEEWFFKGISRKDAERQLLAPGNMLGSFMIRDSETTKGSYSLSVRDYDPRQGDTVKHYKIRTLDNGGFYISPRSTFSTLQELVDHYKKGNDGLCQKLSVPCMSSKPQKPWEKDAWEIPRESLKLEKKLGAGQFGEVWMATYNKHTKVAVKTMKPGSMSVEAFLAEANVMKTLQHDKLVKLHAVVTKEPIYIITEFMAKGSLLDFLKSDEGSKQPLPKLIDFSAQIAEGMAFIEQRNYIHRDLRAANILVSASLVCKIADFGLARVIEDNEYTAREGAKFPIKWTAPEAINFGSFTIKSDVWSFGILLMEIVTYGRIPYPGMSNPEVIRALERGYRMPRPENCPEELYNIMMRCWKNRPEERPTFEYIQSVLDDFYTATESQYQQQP
FGFR1, sequence (P11362 whole entry, looked up): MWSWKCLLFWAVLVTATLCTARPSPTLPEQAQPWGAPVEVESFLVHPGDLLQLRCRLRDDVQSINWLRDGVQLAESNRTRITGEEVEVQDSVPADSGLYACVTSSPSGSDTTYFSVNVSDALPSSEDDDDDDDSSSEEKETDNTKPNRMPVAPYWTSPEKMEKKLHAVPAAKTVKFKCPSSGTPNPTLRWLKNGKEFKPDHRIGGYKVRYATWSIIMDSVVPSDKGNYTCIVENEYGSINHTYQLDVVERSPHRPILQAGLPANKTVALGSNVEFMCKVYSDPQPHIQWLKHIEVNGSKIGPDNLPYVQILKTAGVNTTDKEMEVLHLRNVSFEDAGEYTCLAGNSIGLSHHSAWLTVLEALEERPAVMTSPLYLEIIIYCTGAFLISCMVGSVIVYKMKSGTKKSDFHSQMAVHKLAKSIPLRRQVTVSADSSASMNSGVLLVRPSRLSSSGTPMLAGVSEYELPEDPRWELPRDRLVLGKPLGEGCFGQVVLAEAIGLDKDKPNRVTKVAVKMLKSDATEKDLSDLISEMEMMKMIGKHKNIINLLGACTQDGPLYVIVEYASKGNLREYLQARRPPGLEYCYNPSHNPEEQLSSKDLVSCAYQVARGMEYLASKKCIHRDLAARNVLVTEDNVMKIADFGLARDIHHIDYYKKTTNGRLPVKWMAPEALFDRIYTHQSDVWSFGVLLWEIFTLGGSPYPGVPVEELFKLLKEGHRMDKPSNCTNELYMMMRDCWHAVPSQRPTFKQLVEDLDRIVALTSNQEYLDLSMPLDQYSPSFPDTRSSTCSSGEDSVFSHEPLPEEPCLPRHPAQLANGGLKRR
EPHB1, sequence (P54762 whole entry, looked up): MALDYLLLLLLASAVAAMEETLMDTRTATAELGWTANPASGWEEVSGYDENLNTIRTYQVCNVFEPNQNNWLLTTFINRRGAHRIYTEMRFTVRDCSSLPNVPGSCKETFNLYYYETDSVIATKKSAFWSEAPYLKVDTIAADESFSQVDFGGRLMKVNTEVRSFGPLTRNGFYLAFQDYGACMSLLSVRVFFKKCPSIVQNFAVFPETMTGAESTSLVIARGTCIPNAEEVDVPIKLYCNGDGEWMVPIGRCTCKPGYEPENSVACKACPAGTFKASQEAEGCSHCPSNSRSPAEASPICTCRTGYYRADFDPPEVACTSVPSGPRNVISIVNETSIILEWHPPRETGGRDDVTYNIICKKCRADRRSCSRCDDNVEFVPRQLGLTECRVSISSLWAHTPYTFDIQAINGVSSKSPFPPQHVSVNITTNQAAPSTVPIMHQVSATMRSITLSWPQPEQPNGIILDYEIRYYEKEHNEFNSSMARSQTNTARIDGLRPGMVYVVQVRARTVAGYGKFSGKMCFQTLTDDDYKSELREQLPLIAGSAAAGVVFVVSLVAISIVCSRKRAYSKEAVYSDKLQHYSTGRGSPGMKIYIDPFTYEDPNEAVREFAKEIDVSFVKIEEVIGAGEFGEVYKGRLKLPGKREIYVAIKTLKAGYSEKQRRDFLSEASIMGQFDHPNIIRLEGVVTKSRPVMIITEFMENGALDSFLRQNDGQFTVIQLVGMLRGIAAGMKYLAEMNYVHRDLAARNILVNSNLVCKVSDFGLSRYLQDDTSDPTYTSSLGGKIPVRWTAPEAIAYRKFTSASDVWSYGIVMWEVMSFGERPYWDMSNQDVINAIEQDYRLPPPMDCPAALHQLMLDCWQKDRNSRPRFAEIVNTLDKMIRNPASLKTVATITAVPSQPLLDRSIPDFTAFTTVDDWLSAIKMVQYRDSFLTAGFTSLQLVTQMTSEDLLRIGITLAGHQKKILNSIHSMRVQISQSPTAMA
Fyn, sequence (P06241 whole entry, looked up): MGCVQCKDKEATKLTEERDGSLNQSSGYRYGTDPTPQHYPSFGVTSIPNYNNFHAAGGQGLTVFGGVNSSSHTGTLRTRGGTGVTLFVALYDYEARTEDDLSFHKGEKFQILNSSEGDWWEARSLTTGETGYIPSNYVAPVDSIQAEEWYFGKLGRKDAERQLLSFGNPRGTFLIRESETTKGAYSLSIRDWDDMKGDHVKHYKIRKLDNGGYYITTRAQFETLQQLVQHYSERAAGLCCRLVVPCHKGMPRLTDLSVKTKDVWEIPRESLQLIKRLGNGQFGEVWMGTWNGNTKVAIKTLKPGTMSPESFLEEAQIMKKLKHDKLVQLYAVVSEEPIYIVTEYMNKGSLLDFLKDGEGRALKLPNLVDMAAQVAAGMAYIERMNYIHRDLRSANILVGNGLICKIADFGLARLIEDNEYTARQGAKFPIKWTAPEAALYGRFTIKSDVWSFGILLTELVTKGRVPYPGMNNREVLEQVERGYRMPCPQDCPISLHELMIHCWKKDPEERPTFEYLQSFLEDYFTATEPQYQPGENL

Row | Sequence | phosphorylation enrichment [1] | phosphorylation enrichment [2] | phosphorylation enrichment [3] | phosphorylation enrichment [4] | phosphorylation enrichment [5] | phosphorylation enrichment [6] | phosphorylation enrichment [7] | phosphorylation enrichment [8] | phosphorylation enrichment [9] | phosphorylation enrichment [10] | phosphorylation enrichment [11] | phosphorylation enrichment [12] | phosphorylation enrichment [13] | SH2 binding enrichment [14] | SH2 binding enrichment [15] | SH2 binding enrichment [16]
1 | GVTLLYFGRDN [ADGRD1_Y85_Y89D_YF] | 0.424 | 0.633 | 0.887 | 0.398 | 0.937 | 0.488 | 0.353 | 0.643 | 0.737 | 1.04 | 0.516 | 0.481 | 0.321 | 1.16 | 1.63 | 1.19
2 | TQNAVYSAANF [DDX5_Y535_G533A_YF] | 4.24 | 3.15 | 0.634 | 8.46 | 0.526 | 0.519 | 10.3 | 7.53 | 0.515 | 0.694 | 12 | 6.31 | 8.98 | 0.631 | 0.958 | 0.704
3 | PPNSPYIGSSP [KCNT1_Y740] | 0.468 | 0.493 | 0.501 | 0.352 | 0.417 | 0.537 | 0.464 | 0.572 | 0.362 | 0.557 | 0.457 | 0.382 | 0.422 | 0.371 | 0.783 | 0.557
4 | PGAGHYEDTIL [ALK_Y1604] | 0.597 | 0.871 | 1.15 | 0.391 | 0.896 | 0.664 | 0.809 | 0.765 | 0.881 | 1.16 | 0.786 | 6.12 | 0.597 | 3.04 | 0.797 | 0.559
5 | QEGPEYWDRNT [HLA-B_Y83] | 0.741 | 0.9 | 1.36 | 0.485 | 0.806 | 1.03 | 0.763 | 0.757 | 0.913 | 1.29 | 0.685 | 0.557 | 0.49 | 0.377 | 0.856 | 0.711
6 | QTWKTYVRHQQ [SFI1_Y164_Q167H] | 0.509 | 0.548 | 0.901 | 0.769 | 1.3 | 0.535 | 0.476 | 1.36 | 2.21 | 1.29 | 0.486 | 0.465 | 0.49 | 0.784 | 1.38 | 0.946
7 | LQPNNCQFCGG [CSF1R_Y969_Y969C] | 0.711 | 0.735 | 0.929 | 0.647 | 1.05 | 0.752 | 0.752 | 1.07 | 1.21 | 0.858 | 0.987 | 0.348 | 0.785 | 0.709 | 0.943 | 0.865
8 | PGQRVYVVAES [SHH_Y316_R321S] | 0.507 | 0.695 | 1.06 | 0.546 | 1.07 | 0.494 | 0.538 | 0.896 | 0.848 | 1.45 | 0.748 | 0.728 | 0.377 | 0.55 | 0.756 | 0.892
9 | GVMLLYYGRYN [ADGRD1_Y85_T82M] | 0.761 | 0.616 | 1.53 | 2.23 | 1.34 | 0.556 | 1.24 | 0.594 | 0.6 | 1.24 | 1.21 | 0.515 | 0.416 | 0.96 | 1.17 | 0.921
10 | DVYVSYDYGKS [SORL1_Y139] | 5.62 | 2.95 | 1.45 | 5.25 | 0.795 | 6.8 | 7.46 | 1.03 | 4.03 | 0.98 | 4.33 | 2.42 | 4.1 | 0.924 | 0.741 | 1
11 | RENGPYFTSFP [GDAP2_Y487_YF] | 0.645 | 0.417 | 1.03 | 0.971 | 0.991 | 0.764 | 0.479 | 1.19 | 0.825 | 1.17 | 0.49 | 0.591 | 0.568 | 0.714 | 0.878 | 0.773
12 | TPTFPYLLPKS [PLD2_Y580_YF] | 0.464 | 0.44 | 0.623 | 0.451 | 0.519 | 0.503 | 0.501 | 0.499 | 0.406 | 0.63 | 0.423 | 0.382 | 0.51 | 0.587 | 1.01 | 1.01
13 | FTFNSYFMHWV [IGHV1-46_Y51_T49N_YF] | 0.761 | 0.726 | 1.55 | 0.555 | 6.35 | 1.51 | 0.608 | 0.962 | 1.37 | 1.59 | 0.693 | 1.62 | 1.04 | 0.795 | 1.12 | 1.07
14 | DGMADCSDPSF [CDC5L_Y459_Y459C_YF] | 0.659 | 0.627 | 1.21 | 0.582 | 1.01 | 0.533 | 0.524 | 1 | 0.701 | 1.29 | 0.6 | 0.627 | 0.525 | 0.635 | 0.984 | 0.853
15 | KGIQLYDTPYE [SHB_Y297] | 15.6 | 11.3 | 1.5 | 1.24 | 1.13 | 0.564 | 0.891 | 1.13 | 0.695 | 1.04 | 1.84 | 3.26 | 5.25 | 4.71 | 1.15 | 1.1
16 | TSIGNYYKPWF [DHCR24_Y299_N294T] | 15.7 | 16.3 | 1 | 0.707 | 11.5 | 5.29 | 0.59 | 14.6 | 4.18 | 0.868 | 1.03 | 0.438 | 10.1 | 1.27 | 0.844 | 2.71
17 | SVTCTYFPALN [TP53_Y126_S127F] | 0.669 | 0.83 | 1.68 | 0.452 | 1.64 | 0.632 | 0.487 | 1.13 | 1.01 | 1.82 | 0.554 | 0.637 | 0.608 | 0.388 | 0.721 | 0.747
